Laboratory results published in the Human Domainome abundance scans (Beltran et al. 2025).

B1: DnaJ homolog subfamily C member 5, residues 16 to 77; numbered along this chain, Q9H3Z4 (parent)
chain: LYHVLGLDKNATSDDIKKSYRKLALKYHPDKNPDNPEAADKFKEINNAHAILTDATKRNIYD

Variants of: B1
Experiment: abundance fitness (aPCA) (normalised: wild type 0, dead -1); higher = more abundant; growth selection in yeast, the domain comes from the species named
Details: Homo sapiens

Abundance fitness of substitutions, site by site:
N35: Q -0.265 | E -0.235 | S -0.041 | R -0.282 | F -0.309 | W -0.317 | V -0.255 | A -0.184 | C -0.462 | I -0.255 | G -0.281 | K -0.194 | H -0.197 | M -0.431 | T -0.143
H49: E -0.362 | D -0.4 | L -0.291 | Q -0.161 | N -0.062 | S -0.279 | I -0.639 | R 0.029 | T -0.26 | M -0.002 | W -0.153 | F 0.149 | A 0.009 | K -0.032 | P -0.423 | Y -0.251 | C -0.405 | G -0.052 | V -0.091
I45: W -0.841 | K -0.263 | F -0.747 | G -0.253 | S -0.47 | R -0.623 | Y -0.366 | P -0.425 | C -0.44 | T -0.216 | H -0.792 | L -0.026 | M -0.418 | E -0.203 | V 0.007 | A -0.181 | D -0.311 | N -0.381 | Q -0.45
N32: K -0.353 | M -0.157 | Y -0.67 | V -0.396 | A -0.349 | P -0.691 | H -0.009 | F -0.24 | D -0.282 | G -0.434 | S -0.3 | R -0.431 | L -0.684 | T -0.251 | W -0.179
K43: M 0.382 | D 0.015 | Y 0.364 | F 0.349 | R -0.263 | G -0.116 | E -0.34 | P -1.02 | Q 0.362 | W -0.276 | A 0.299 | N -0.23 | S -0.043 | T 0.051 | H 0.519
P29: M -0.386 | F -0.542 | T -0.292 | W -0.66 | Y -0.413 | S -0.159 | N -0.278 | G -0.381 | R -0.422 | V -0.414 | L -0.472 | I -0.57 | H -0.539 | Q -0.377
N47: S -0.259 | R -0.142
N46: I -0.178 | K -0.058 | A 0.272 | G -0.082 | M -0.113 | Q -0.035 | W -0.778 | E 0.093 | Y -0.312 | V 0.182 | R -0.017 | C 0.174 | P -0.653 | T 0.256 | L -0.169 | H -0.081 | F -0.065 | D -0.578
E44: Q -0.301 | R -0.435 | A -0.135 | I -0.73 | V -0.264 | G -0.527 | T -0.518 | F -0.744 | L -0.504 | Y -0.742 | W -0.731 | M -0.097 | P -0.626 | N -0.196 | S -0.3 | C -0.524 | D -0.154 | K -0.376
K41: V -0.278 | S -0.223 | T -0.197 | I -0.211 | R -0.119 | E -0.311 | C -0.598 | P -1.1 | F -0.447 | G -0.433 | W -0.4 | Y -0.254 | N -0.434 | A -0.222 | D -0.493 | Q -0.333
F42: H -0.421 | A -0.28 | M 0.223 | S -0.219 | D -0.119 | Q -0.233 | E -0.192 | V -0.197 | G -0.278 | C -0.243 | I -0.135 | P -0.41 | R -0.17 | W -0.05 | N -0.237 | Y -0.017 | K -0.188 | L 0.202
D34: T -0.257 | A -0.145 | Y -0.355 | E -0.079 | V -0.591 | H -0.411 | K -0.006 | R -0.251 | C -0.783 | G 0.068 | L -0.641 | W -0.944 | N -0.299 | F -1.01 | P -0.623 | I -0.586 | M -0.694 | Q -0.206
A48: W -1.58 | V -0.777 | I -0.769 | Y -0.748 | H -0.477 | E -0.387 | S -0.277 | P -0.384 | F -1.72 | G -0.455 | Q -0.82 | M -1.06 | T -0.777 | C -0.85 | N -0.903 | D -0.16
D30: F -0.828 | P -0.384 | A 0.14 | C -0.221 | E 0.01 | T 0.067 | W -0.749 | S 0.099 | N -0.018 | V -0.207 | Y -0.288 | R -0.207 | K 0.084 | M -0.089 | G -0.171
D40: A 0.137 | F 0.029 | N -0.271 | H 0.156 | R 0.271 | Q -0.03 | V 0.194 | L 0.212 | E -0.171 | K 0.385 | W 0.046 | I 0.224 | Y -0.05 | M 0.255 | C -0.012 | T 0.054 | P -0.258
E37: D -0.238 | T -0.011 | S 0.036 | G -0.063 | P -0.441 | V 0.041 | H 0.004 | R -0.117 | I -0.406 | M -0.217 | N 0.042 | W -0.171 | F -0.01 | L -0.172 | C -0.206 | Y -0.226 | Q 0.079
K31: H -0.195 | T -0.139 | M -0.521 | I -0.06 | D -0.118 | W -0.626 | Q -0.06 | A -0.065 | C -0.64 | E -0.116 | S -0.51 | P -0.379 | L -0.433 | N -0.452 | Y -0.207 | F -0.371
A38: S -0.088 | K -0.338 | Y -0.132 | N -0.296 | C -0.401 | L -0.243 | P -0.559 | T -0.292 | M -0.13 | E -0.193 | Q -0.371 | F -0.194 | H -0.169 | I -0.043 | W -0.305 | R -0.279 | D -0.137
A50: T -0.072 | E -0.562 | P -0.773 | L -0.386 | M -0.087 | G -0.198 | S 0.059 | I -0.334 | F -0.61 | H -0.237 | C -0.688 | K -0.091 | R -0.009 | Q -0.294
P33: C -0.327 | I -0.501 | Y -0.34 | H -0.798 | M -0.489 | F -0.351 | L -0.507 | K 0.209 | A -0.032 | N -0.365 | E -0.035 | S -0.121 | D -0.16 | T -0.098 | G 0.111 | Q -0.063 | V -0.225 | R 0.064
A39: V -0.01 | Y 0.082 | E -0.14 | M -0.126 | T -0.427 | K 0.095 | N 0.003 | D 0.033 | F -0.56 | P -0.301 | S -0.176 | G -0.032 | L 0.014 | R -0.021 | C 0.01 | I 0.064 | Q -0.227
